In US20090192048A1, “METHOD OF PRODUCING A […] AGENT FOR BINDING A LIGAND” (priority 2005, published 2009):
Ends that are not written are not given here.

Tests used:
[1] = Time-dependent persistence of peptide 2DOS-2 on a polypropylene hydrophobic surface in aqueous buffer; type: physicochemical
Description: The time-dependent persistence of peptide 2DOS-2 (see above) deposited onto a polypropylene hydrophobic surface in the presence of aqueous buffer was investigated as shown below:
Twelve 100 μl aliquots of 5 μM peptide 2DOS-2 in 5 mM tris-HCl (pH 8.0) in 75% (v/v) aqueous acetonitrile were dispensed to the wells of the top row of a Costar microtitre plate.
The peptide samples were allowed to evaporate to dryness in the dark.
The dried peptide samples in wells 1-10 were incubated with 250 μl of 1 M NaCl in 10 mM tris-HCl (pH 8.0) for the time indicated below at room temperature. All supernatants were pipetted up and down 8 times after incubation and the supernatants were then removed and placed in the wells of the bottom row of the microtitre plate.
The residual surface-bound peptides in all twelve wells were finally resuspended in 50 μl of 10 mM tris-HCl (pH 8.0) in 50% (v/v) aqueous acetonitrile and the microtitre plates were imaged at 200 μm resolution on a Typhoon Trio Plus variable mode imager (Amersham Biosciences) with the green (532 nm) laser and the 580 BP 30 filter at the PMT voltages indicated below and at normal sensitivity. The scan height was set at +3 mm and the sample was pressed during scanning.
The fluorescence images were analysed using ImageQuant TL v2003.03 (Amersham Biosciences).

[2] = Retention of peptides on Greiner polypropylene V-bottom wells; type: physicochemical; conditions: 400V scan
In short: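 Peptides (5 μM) and TAMRA dried from 5 mM tris-HCl pH 8.0 in 75% acetonitrile in V-bottom wells; some wells washed 15 min at room temperature with 1 M NaCl in 10 mM tris-HCl pH 8.0. Residue redissolved in 10 mM tris-HCl pH 8.0/50% acetonitrile; retained fluorescence imaged with 532 nm excitation, 580 BP 30 filter.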

Question: What does the source list for “N-TAMRA-Phe-Asp- Phe-Ala-Phe-Ser- Phe-Lys-Phe-C ({TAMRA}-FDFAFSFKF) [Peptide 2DOS-2]”?
Answer: Percent retention ([1]; 0 minutes in 1 M NaCl/10 mM tris-HCl (pH 8.0)): 90%; Retained fluorescence ([1]; 0 minutes in 1 M NaCl/10 mM tris-HCl (pH 8.0), 300V scan): 904,211; Stability of retention on polypropylene over time (in words) ([1]; 1 M NaCl/10 mM tris-HCl (pH 8.0), up to 510 minutes): stable for extended periods of time; Percent retention ([1]; 2.5 minutes in 1 M NaCl/10 mM tris-HCl (pH 8.0)): 90%; Retained fluorescence ([1]; 2.5 minutes in 1 M NaCl/10 mM tris-HCl (pH 8.0), 300V scan): 902,082; Untreated fluorescence (average) ([1]; 300V scan, unwashed wells): 1,000,613; Percent retention ([1]; 5 minutes in 1 M NaCl/10 mM tris-HCl (pH 8.0)): 85%; Retained fluorescence ([1]; 5 minutes in 1 M NaCl/10 mM tris-HCl (pH 8.0), 300V scan): 847,767; Percent retention ([1]; 10 minutes in 1 M NaCl/10 mM tris-HCl (pH 8.0)): 79%; Retained fluorescence ([1]; 10 minutes in 1 M NaCl/10 mM tris-HCl (pH 8.0), 300V scan): 792,427; Percent retention ([1]; 20 minutes in 1 M NaCl/10 mM tris-HCl (pH 8.0)): 75%; Retained fluorescence ([1]; 20 minutes in 1 M NaCl/10 mM tris-HCl (pH 8.0), 300V scan): 749,522; Percent retention ([1]; 40 minutes in 1 M NaCl/10 mM tris-HCl (pH 8.0)): 77%; Retained fluorescence ([1]; 40 minutes in 1 M NaCl/10 mM tris-HCl (pH 8.0), 300V scan): 769,659; Percent retention ([1]; 80 minutes in 1 M NaCl/10 mM tris-HCl (pH 8.0)): 74%; Retained fluorescence ([1]; 80 minutes in 1 M NaCl/10 mM tris-HCl (pH 8.0), 300V scan): 740,227; Percent retention ([1]; 160 minutes in 1 M NaCl/10 mM tris-HCl (pH 8.0)): 74%; Retained fluorescence ([1]; 160 minutes in 1 M NaCl/10 mM tris-HCl (pH 8.0), 300V scan): 739,600; Percent retention ([1]; 320 minutes in 1 M NaCl/10 mM tris-HCl (pH 8.0)): 81%; Retained fluorescence ([1]; 320 minutes in 1 M NaCl/10 mM tris-HCl (pH 8.0), 300V scan): 805,530; Percent retention ([1]; 510 minutes in 1 M NaCl/10 mM tris-HCl (pH 8.0)): 80%; Retained fluorescence ([1]; 510 minutes in 1 M NaCl/10 mM tris-HCl (pH 8.0), 300V scan): 803,741; Percent retention [2]: 78%; Untreated fluorescence ([2]; unwashed): 3,512,023; Retained fluorescence ([2]; washed 15 minutes in 1 M NaCl in 10 mM tris-HCl (pH 8.0)): 2,731,827
